The source of these data is patent US6387638.

Where a chain is given by its changes, count along the chain named. In names and notes the source's numbering stands. Ends that are not written are not given here.

By EC50 is commonly meant the concentration needed to bring the measured effect to its halfway point.

In experiment [1] the target is T1, ErbB-3 receptor-Ig fusion (homodimer) (human, UniProt P21860 20-643; P21860 20-636). Kind of experiment: phage ELISA, soluble ErbB-3-Ig as competitor. Background: An ELISA detects its analyte on a solid surface through an enzyme-linked reagent.
In experiment [2] the target is T2, ErbB-4 receptor-Ig fusion (homodimer) (human, UniProt Q15303 26-651; Q15303 26-640). Nature of the experiment: phage ELISA, soluble ErbB-4-Ig as competitor.
Experiment [3] deals with T1, ErbB-3 receptor-Ig fusion (homodimer). Kind of experiment: phage ELISA, soluble ErbB-3-Ig as competitor. The source holds these as a separate data set.
Experiment [4] addresses T2, ErbB-4 receptor-Ig fusion (homodimer). Kind of experiment: displacement of 125I-HRG-β1 177-244 from plate-bound ErbB-4-Ig. Background: Loss of bound radioactivity is the signal in a displacement assay; it reports binding, not function.
Experiment [5] concerns the target T1, ErbB-3 receptor-Ig fusion (homodimer). Nature of the experiment: displacement of 125I-HRG-β1 177-244 from plate-bound ErbB-3-Ig.

T1 sequence (P21860 other isoform, or with tags, fused parts or gaps): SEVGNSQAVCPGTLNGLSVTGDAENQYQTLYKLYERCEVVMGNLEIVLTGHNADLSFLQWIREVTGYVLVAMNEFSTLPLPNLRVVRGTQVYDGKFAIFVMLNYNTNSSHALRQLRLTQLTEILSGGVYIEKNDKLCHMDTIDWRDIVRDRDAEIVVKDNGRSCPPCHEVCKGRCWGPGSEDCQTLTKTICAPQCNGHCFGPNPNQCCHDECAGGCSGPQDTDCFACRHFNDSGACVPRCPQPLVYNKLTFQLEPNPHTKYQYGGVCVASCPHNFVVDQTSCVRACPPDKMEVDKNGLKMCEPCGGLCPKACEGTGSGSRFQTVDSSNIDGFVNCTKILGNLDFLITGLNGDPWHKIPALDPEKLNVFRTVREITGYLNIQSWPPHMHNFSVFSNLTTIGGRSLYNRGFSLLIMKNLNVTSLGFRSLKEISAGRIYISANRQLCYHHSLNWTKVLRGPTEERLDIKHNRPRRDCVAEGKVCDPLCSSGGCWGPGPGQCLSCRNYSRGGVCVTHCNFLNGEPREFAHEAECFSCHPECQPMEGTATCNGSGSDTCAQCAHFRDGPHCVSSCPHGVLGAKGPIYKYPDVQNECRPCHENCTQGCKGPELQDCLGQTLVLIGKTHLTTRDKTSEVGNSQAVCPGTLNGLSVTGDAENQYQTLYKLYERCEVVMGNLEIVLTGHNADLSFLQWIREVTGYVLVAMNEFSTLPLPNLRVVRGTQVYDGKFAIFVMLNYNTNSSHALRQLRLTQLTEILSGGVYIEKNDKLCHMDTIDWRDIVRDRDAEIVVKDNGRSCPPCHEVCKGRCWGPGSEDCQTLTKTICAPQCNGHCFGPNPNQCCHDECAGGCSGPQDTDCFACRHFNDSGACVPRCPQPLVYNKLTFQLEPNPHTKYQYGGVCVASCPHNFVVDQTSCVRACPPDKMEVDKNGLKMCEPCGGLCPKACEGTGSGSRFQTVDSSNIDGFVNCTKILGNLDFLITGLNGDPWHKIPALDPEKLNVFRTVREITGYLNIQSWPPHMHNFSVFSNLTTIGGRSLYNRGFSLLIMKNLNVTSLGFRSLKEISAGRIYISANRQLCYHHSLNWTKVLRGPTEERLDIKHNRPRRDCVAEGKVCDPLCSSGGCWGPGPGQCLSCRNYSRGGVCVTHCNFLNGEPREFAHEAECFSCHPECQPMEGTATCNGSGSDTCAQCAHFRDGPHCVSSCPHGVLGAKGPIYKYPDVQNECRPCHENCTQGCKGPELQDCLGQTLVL
T2 sequence (Q15303 other isoform, or with tags, fused parts or gaps): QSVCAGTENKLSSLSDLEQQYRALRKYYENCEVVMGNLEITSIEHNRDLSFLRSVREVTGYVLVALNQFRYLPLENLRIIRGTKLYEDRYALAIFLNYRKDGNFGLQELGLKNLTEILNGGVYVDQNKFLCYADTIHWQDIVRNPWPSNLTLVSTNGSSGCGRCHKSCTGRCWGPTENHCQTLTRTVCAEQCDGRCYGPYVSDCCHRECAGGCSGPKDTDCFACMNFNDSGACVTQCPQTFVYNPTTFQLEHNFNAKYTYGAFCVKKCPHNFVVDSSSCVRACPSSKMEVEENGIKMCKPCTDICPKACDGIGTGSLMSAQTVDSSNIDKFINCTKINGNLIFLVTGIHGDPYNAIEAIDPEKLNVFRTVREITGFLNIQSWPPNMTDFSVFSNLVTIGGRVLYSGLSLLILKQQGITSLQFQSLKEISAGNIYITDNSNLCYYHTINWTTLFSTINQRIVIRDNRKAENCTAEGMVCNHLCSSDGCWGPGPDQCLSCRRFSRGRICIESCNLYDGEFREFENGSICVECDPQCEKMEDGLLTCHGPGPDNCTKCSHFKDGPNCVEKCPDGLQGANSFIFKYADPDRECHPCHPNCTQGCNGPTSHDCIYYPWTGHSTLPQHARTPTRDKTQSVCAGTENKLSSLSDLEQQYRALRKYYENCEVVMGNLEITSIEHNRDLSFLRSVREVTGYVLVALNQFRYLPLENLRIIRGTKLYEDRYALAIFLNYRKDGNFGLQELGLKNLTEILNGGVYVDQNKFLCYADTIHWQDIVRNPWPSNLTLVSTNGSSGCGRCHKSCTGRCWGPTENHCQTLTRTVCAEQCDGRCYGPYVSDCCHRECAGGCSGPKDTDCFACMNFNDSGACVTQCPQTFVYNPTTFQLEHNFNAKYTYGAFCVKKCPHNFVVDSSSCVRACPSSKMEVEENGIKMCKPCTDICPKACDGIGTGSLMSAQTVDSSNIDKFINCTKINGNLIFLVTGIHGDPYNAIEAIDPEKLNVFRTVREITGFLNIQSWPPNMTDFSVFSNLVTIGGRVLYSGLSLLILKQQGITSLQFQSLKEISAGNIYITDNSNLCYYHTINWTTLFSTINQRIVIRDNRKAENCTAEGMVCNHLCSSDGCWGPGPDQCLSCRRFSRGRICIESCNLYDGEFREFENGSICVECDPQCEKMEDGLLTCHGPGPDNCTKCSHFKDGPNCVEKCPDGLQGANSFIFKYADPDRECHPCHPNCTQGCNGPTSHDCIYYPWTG

“HRG-β1 177-244 H178L, phage-displayed (Example 4 clone) (from UniProt P69168 265-424) (ligand)”: the EC50 Mut/WT in experiment [1] worked out at 1.4; in experiment [2], 1.2.
Regarding “HRG-β1 177-244 H178D L179V, phage-displayed (Example 4 clone) (from UniProt P69168 265-424) (ligand)”, the EC50 Mut/WT in experiment [1] came to 2.2; in experiment [2], 2.
The corresponding values for “HRG-β1 177-244 H178L with 228-231 replaced by Met, phage-displayed (Example 4 clone) (from UniProt P69168 265-424) (ligand)” are 6.4 and 1.7.
The corresponding values for “HRG-β1 177-244 R207P, phage-displayed (Example 4 clone) (from UniProt P69168 265-424) (ligand)” are 6.1 and 1.3.
Consider “HRG-β1 177-244 L179V, phage-displayed (Example 4 clone) (from UniProt P69168 265-424) (ligand)”, for which the EC50 Mut/WT came to 1.5 in experiment [1] and 1.6 in experiment [2].
The corresponding values for “HRG-β1 177-244 H178E, phage-displayed (Example 4 clone) (from UniProt P69168 265-424) (ligand)” are 9.5 and 1.7.
The corresponding values for “HRG-β1 177-244 H178W with 228-231 replaced by Met, phage-displayed (Example 4 clone) (from UniProt P69168 265-424) (ligand)” are 1.2 and 1.7.

B1: HRG-β1 EGF variant D1, phage-displayed (ligand)
chain: SHLVKCAEKEKTFCVNGGECYKVRILSNPSRYLCKCPNEFTGDRCQNYVIAS
modifications: not fully specified; cysteine pairing not given here
notes: pHRG8-g3 scaffold; not shown: Display carrier only: the (GGGS)3 linker and the M13 pIII C-terminal fragment from residue 323
Take B1: the “EC50(wt)/EC50(mut)” value in experiment [3] stood at 11 ratio.

B2: combination variant HRG59, phage-displayed (ligand)
chain: B1 chain with K22R, R24K, I25T
modifications: not fully specified; cysteine pairing not given here
notes: not shown: Display carrier: (GGGS)3 linker and M13 pIII C-terminal fragment from residue 323
As for B2, the “EC50(wt)/EC50(mut)” value in experiment [3] came to 26 ratio.

B3: HRG-β1 EGF variant D10, phage-displayed (ligand)
chain: B1 chain with K22M, R24K, I25T, I50M
modifications: not fully specified; cysteine pairing not given here
notes: as for B1
As for B3, in experiment [3], the “EC50(wt)/EC50(mut)” value is 2.1 ratio.

B4: HRG90: HRG-β1 EGF Met226Ile, phage-displayed (ligand, phage M13)
chain: SHLVKCAEKEKTFCVNGGECFMVKDLSNPSRYLCKCPNEFTGDRCQNYVIASGGGSGGGSGGGSNSQMAQVGDGDNSPLMNNFRQYLPSLPQSVECRPFVFSAGKPYEFSIDCDKINLFRGVFAFLLYVATFMYVFSTFANILRNKES
notes: range 323-end
Regarding B4, in experiment [3], the “EC50(wt)/EC50(mut)” value came out at 6.3 ratio.

B5: Trx-HRG-β1 146-244 S177A fusion (soluble) (ligand)
chain: AYVSSESPIRISVSTEGANTSSSTSTSTTGTAHLVKCAEKEKTFCVNGGECFMVKDLSNPSRYLCKCPNEFTGDRCQNYVMASFYKHLGIEFMEAEELY
B5: the results for the EC50 in experiment [4] and in experiment [5] were 54.6 nM and 129 nM, respectively.

B6: Trx-HRG-β1 146-244 R207A fusion (soluble) (ligand)
chain: B5 chain with A32S, R62A
Take B6: the EC50 in experiment [4] turned out to be 24.3 nM; in experiment [5] it was 245 nM.

B7: Trx-HRG-β1 146-244 T217A fusion (soluble) (ligand)
chain: B5 chain with A32S, T72A
In the case of B7, the EC50 in experiment [4] is 32.7 nM; in experiment [5], 145 nM.

B8: Trx-HRG-β1 146-244 N192A fusion (soluble) (ligand)
chain: B5 chain with A32S, N47A
As to B8, the figures for the EC50 in experiment [4] and in experiment [5] were 696 nM and 1640 nM, respectively.

B9: Trx-HRG-β1 146-244 E195A fusion (soluble) (ligand)
chain: B5 chain with A32S, E50A
With B9, the EC50 in experiment [4] was 13.2 nM; in experiment [5], 42 nM.

B10: Trx-HRG-β1 146-244 K200A fusion (soluble) (ligand)
chain: B5 chain with A32S, K55A
Take B10: the EC50 in experiment [4] is 16.9 nM; in experiment [5] it was 45.4 nM.

B11: Trx-HRG-β1 146-244 H178A fusion (soluble) (ligand)
chain: B5 chain with A32S, H33A
As for B11, the EC50 was 138 nM in experiment [4] and 476 nM in experiment [5].

B12: Trx-HRG-β1 146-244 P205A fusion (soluble) (ligand)
chain: B5 chain with A32S, P60A
Turning to B12, the EC50 in experiment [4] worked out at 34.2 nM; in experiment [5], 39.5 nM.

B13: Trx-HRG-β1 146-244 F189A fusion (soluble) (ligand)
chain: B5 chain with A32S, F44A
B13: the EC50 in experiment [4] amounted to 565 nM; in experiment [5], 975 nM.

B14: Trx-HRG-β1 146-244 L179A fusion (soluble) (ligand)
chain: B5 chain with A32S, L34A
On to B14, for which the EC50 in experiment [4] was found to be 51.7 nM; in experiment [5], 394 nM.

B15: Trx-HRG-β1 146-244 G194A fusion (soluble) (ligand)
chain: B5 chain with A32S, G49A
Turning to B15, the EC50 came to 275 nM in experiment [4] and 1210 nM in experiment [5].

B16: Trx-HRG-β1 146-244 G193A fusion (soluble) (ligand)
chain: B5 chain with A32S, G48A
For B16, the EC50 in experiment [4] is 76.3 nM; in experiment [5], 26.9 nM.

B17: HRG-β1 EGF variant B5, phage-displayed (ligand)
chain: SHLVKCGWDREGFCVNGGECFMVKDLSNPSRYLCKCPNEFTGDRCQNYVIAS
modifications: not fully specified; cysteine pairing not given here
notes: as for B1
In the case of B17, the “EC50(wt)/EC50(mut)” value in experiment [3] worked out at 26 ratio.

B18: HRG-β1 EGF variant B10, phage-displayed (ligand)
chain: B17 chain with G7D, W8K, D9S
modifications: not fully specified; cysteine pairing not given here
notes: as for B1
With B18, the “EC50(wt)/EC50(mut)” value in experiment [3] is 9.3 ratio.

B19: combination variant HRG56, phage-displayed (ligand)
chain: B17 chain with W8E, D9E
modifications: not fully specified; cysteine pairing not given here
notes: as for B2
Take B19: the “EC50(wt)/EC50(mut)” value in experiment [3] was 31 ratio.

B20: combination variant HRG60, phage-displayed (ligand)
chain: B17 chain with W8E, D9E, F21Y, M22R, D25T
modifications: not fully specified; cysteine pairing not given here
notes: not shown: Display carrier only: (GGGS)3 linker and the M13 pIII C-terminal fragment from residue 323
For the molecule B20, in experiment [3], the “EC50(wt)/EC50(mut)” value is 63 ratio.

B21: combination variant HRG53, phage-displayed (ligand)
chain: B17 chain with W8E, D9E, F21Y, M22R, D25T, I50M
modifications: not fully specified; cysteine pairing not given here
notes: as for B2
As to B21, in experiment [3], the “EC50(wt)/EC50(mut)” value was 26 ratio.

B22: HRG-β1 EGF variant E3, phage-displayed (ligand)
chain: SHLVKCAEKEKTFCVNGGECFMVKDYRYRMCKCPNEFTGDRCQNYVIAS
modifications: not fully specified; cysteine pairing not given here
notes: not shown: Display carrier only: the (GGGS)3 linker and the M13 pIII C-terminal fragment from residue 323
As to B22, the “EC50(wt)/EC50(mut)” value in experiment [3] was 16 ratio.

B23: HRG-β1 EGF variant E6, phage-displayed (ligand)
chain: B22 chain with Y26T, R27H, I47M
modifications: not fully specified; cysteine pairing not given here
notes: as for B22
As for B23, in experiment [3], the “EC50(wt)/EC50(mut)” value turned out to be 6.6 ratio.

B24: combination variant HRG48, phage-displayed (ligand)
chain: B22 chain with R27G, R29L
modifications: not fully specified; cysteine pairing not given here
notes: as for B2
On to B24, for which the “EC50(wt)/EC50(mut)” value in experiment [3] was 49 ratio.

B25: combination variant HRG57, phage-displayed (ligand)
chain: B22 chain with F21Y, M22R, D25T, R27G, R29L, I47M
modifications: not fully specified; cysteine pairing not given here
notes: as for B2
For the molecule B25, the “EC50(wt)/EC50(mut)” value in experiment [3] worked out at 24 ratio.

B26: combination variant HRG71, phage-displayed (ligand)
chain: B22 chain with F21Y, M22R, D25T, R27G, R29L, N44H
modifications: not fully specified; cysteine pairing not given here
notes: as for B20
For B26, in experiment [3], the “EC50(wt)/EC50(mut)” value was 79 ratio.

B27: combination variant HRG54, phage-displayed (ligand)
chain: SHLVKCGEEREGFCVNGGECFMVKDYGYLMCKCPNEFTGDRCQNYVMAS
modifications: not fully specified; cysteine pairing not given here
notes: as for B2
Regarding B27, the “EC50(wt)/EC50(mut)” value in experiment [3] came out at 12 ratio.

B28: combination variant HRG62, phage-displayed (ligand)
chain: B27 chain with F21Y, M22R, D25T, M47I
modifications: not fully specified; cysteine pairing not given here
notes: as for B20
As to B28, the “EC50(wt)/EC50(mut)” value in experiment [3] turned out to be 32 ratio.

B29: combination variant HRG61, phage-displayed (ligand)
chain: B27 chain with M47I
modifications: not fully specified; cysteine pairing not given here
notes: as for B20
Consider B29, for which the “EC50(wt)/EC50(mut)” value in experiment [3] turned out to be 29 ratio.

B30: combination variant HRG55, phage-displayed (ligand)
chain: B27 chain with F21Y, M22R, D25T
modifications: not fully specified; cysteine pairing not given here
notes: as for B2
On to B30, for which the “EC50(wt)/EC50(mut)” value in experiment [3] turned out to be 13 ratio.
